# Results taken from IntAct's records for PubMed 35512704.
# B1: Speckle-type POZ protein (Homo sapiens), O43791 (parent)
# chain: MSRVPSPPPPAEMSSGPVAESWCYTQIKVVKFSYMWTINNFSFCREEMGEVIKSSTFSSGANDKLKWCLRVNPKGLDEESKDYLSLYLLLVSCPKSEVRAKFKFSILNAKGEETKAMESQRAYRFVQGKDWGFKKFIRRDFLLDEANGLLPDDKLTLFCEVSVVQDSVNISGQNTMNMVKVPECRLADELGGLWENSRFTDCCLCVAGQEFQAHKAILAARSPVFSAMFEHEMEESKKNRVEINDVEPEVFKEMMCFIYTGKAPNLDKMADDLLAAADKYALERLKVMCEDALCSNLSVENAAEILILADLHSADQLKTQAVDFINYHASDVLETSGWKSMVVSHPHLVAEAYRSLASAQCPFLGPPRKRLKQS
# Variants of: B1
# Conditions: with brd4_human BRD4, O60885
row,effect of a mutation on the interaction,Variant
1,disrupting interaction strength,F133L

# Variants of: B1
# Conditions: with ncoa3_human NCOA3, Q9Y6Q9
row,effect of a mutation on the interaction,Variant
1,disrupting interaction strength,F133L

# Variants of: B1
# Conditions: with jun_human JUN
row,effect of a mutation on the interaction,Variant
1,with no effect,F133L

# Variants of: B1
# Conditions: with akt1_human AKT1, P31749
row,effect of a mutation on the interaction,Variant
1,with no effect,F133L

# Variants of: B1
# Conditions: with alk_human ALK
row,effect of a mutation on the interaction,Variant
1,with no effect,F133L

# Variants of: B1
# Conditions: with aph1a_human APH1A
row,effect of a mutation on the interaction,Variant
1,with no effect,F133L

# Variants of: B1
# Conditions: with arnt_human ARNT
row,effect of a mutation on the interaction,Variant
1,with no effect,F133L

# Variants of: B1
# Conditions: with arc1a_human ARPC1A
row,effect of a mutation on the interaction,Variant
1,with no effect,F133L

# Variants of: B1
# Conditions: with arrb2_human ARRB2, P32121
row,effect of a mutation on the interaction,Variant
1,with no effect,F133L

# Variants of: B1
# Conditions: with bakor_human ATG14, Q6ZNE5
row,effect of a mutation on the interaction,Variant
1,with no effect,F133L

# Variants of: B1
# Conditions: with atm_human ATM
row,effect of a mutation on the interaction,Variant
1,with no effect,F133L

# Variants of: B1
# Conditions: with atpb_human ATP5F1B
row,effect of a mutation on the interaction,Variant
1,with no effect,F133L

# Variants of: B1
# Conditions: with aurkb_human AURKB
row,effect of a mutation on the interaction,Variant
1,with no effect,F133L

# Variants of: B1
# Conditions: with axin2_human AXIN2, Q9Y2T1
row,effect of a mutation on the interaction,Variant
1,with no effect,F133L

# Variants of: B1
# Conditions: with za2g_human AZGP1, P25311
row,effect of a mutation on the interaction,Variant
1,with no effect,F133L

# Variants of: B1
# Conditions: with bap1_human BAP1, Q92560
row,effect of a mutation on the interaction,Variant
1,with no effect,F133L

# Variants of: B1
# Conditions: with bcor_human BCOR
row,effect of a mutation on the interaction,Variant
1,with no effect,F133L

# Variants of: B1
# Conditions: with brd4_human BRD4, O60885
# Remark: another data set of the same source
row,effect of a mutation on the interaction,Variant
1,with no effect,F133L

# Variants of: B1
# Conditions: with baba2_human BABAM2, Q9NXR7
row,effect of a mutation on the interaction,Variant
1,with no effect,F133L

# Variants of: B1
# Conditions: with btg1_human BTG1, P62324
row,effect of a mutation on the interaction,Variant
1,with no effect,F133L

# Variants of: B1
# Conditions: with btk_human BTK
row,effect of a mutation on the interaction,Variant
1,with no effect,F133L

# Variants of: B1
# Conditions: with cblb_human CBLB
row,effect of a mutation on the interaction,Variant
1,with no effect,F133L

# Variants of: B1
# Conditions: with ccnd1_human CCND1, P24385
row,effect of a mutation on the interaction,Variant
1,with no effect,F133L

# Variants of: B1
# Conditions: with ccnd2_human CCND2, P30279
row,effect of a mutation on the interaction,Variant
1,with no effect,F133L

# Variants of: B1
# Conditions: with ccnd3_human CCND3, P30281
row,effect of a mutation on the interaction,Variant
1,with no effect,F133L

# Variants of: B1
# Conditions: with cd44_human CD44, P16070
row,effect of a mutation on the interaction,Variant
1,with no effect,F133L

# Variants of: B1
# Conditions: with cd79b_human CD79B
row,effect of a mutation on the interaction,Variant
1,with no effect,F133L

# Variants of: B1
# Conditions: with cdc27_human CDC27, P30260
row,effect of a mutation on the interaction,Variant
1,with no effect,F133L

# Variants of: B1
# Conditions: with cdc73_human CDC73, Q6P1J9
row,effect of a mutation on the interaction,Variant
1,with no effect,F133L

# Variants of: B1
# Conditions: with cdk4_human CDK4, P11802
row,effect of a mutation on the interaction,Variant
1,with no effect,F133L

# Variants of: B1
# Conditions: with cdk6_human CDK6, Q00534
row,effect of a mutation on the interaction,Variant
1,with no effect,F133L

# Variants of: B1
# Conditions: with cdn2c_human CDKN2C
row,effect of a mutation on the interaction,Variant
1,with no effect,F133L

# Variants of: B1
# Conditions: with chd1l_human CHD1L
row,effect of a mutation on the interaction,Variant
1,with no effect,F133L

# Variants of: B1
# Conditions: with chd2_human CHD2, O14647
row,effect of a mutation on the interaction,Variant
1,with no effect,F133L

# Variants of: B1
# Conditions: with chk2_human CHEK2, O96017
row,effect of a mutation on the interaction,Variant
1,with no effect,F133L

# Variants of: B1
# Conditions: with ch3l1_human CHI3L1, P36222
row,effect of a mutation on the interaction,Variant
1,with no effect,F133L

# Variants of: B1
# Conditions: with csf1r_human CSF1R
row,effect of a mutation on the interaction,Variant
1,with no effect,F133L

# Variants of: B1
# Conditions: with ctla4_human CTLA4, P16410
row,effect of a mutation on the interaction,Variant
1,with no effect,F133L

# Variants of: B1
# Conditions: with cul3_human CUL3, Q13618
row,effect of a mutation on the interaction,Variant
1,with no effect,F133L

# Variants of: B1
# Conditions: with daxx_human DAXX
row,effect of a mutation on the interaction,Variant
1,with no effect,F133L

# Variants of: B1
# Conditions: with ddx5_human DDX5, P17844
row,effect of a mutation on the interaction,Variant
1,with no effect,F133L

# Variants of: B1
# Conditions: with dll3_human DLL3, Q9NYJ7
row,effect of a mutation on the interaction,Variant
1,with no effect,F133L

# Variants of: B1
# Conditions: with duox2_human DUOX2, Q9NRD8
row,effect of a mutation on the interaction,Variant
1,with no effect,F133L

# Variants of: B1
# Conditions: with e2f2_human E2F2, Q14209
row,effect of a mutation on the interaction,Variant
1,with no effect,F133L

# Variants of: B1
# Conditions: with e2f3_human E2F3, O00716
row,effect of a mutation on the interaction,Variant
1,with no effect,F133L

# Variants of: B1
# Conditions: with e2f5_human E2F5, Q15329
row,effect of a mutation on the interaction,Variant
1,with no effect,F133L

# Variants of: B1
# Conditions: with e2f6_human E2F6, O75461
row,effect of a mutation on the interaction,Variant
1,with no effect,F133L

# Variants of: B1
# Conditions: with e2f8_human E2F8, A0AVK6
row,effect of a mutation on the interaction,Variant
1,with no effect,F133L

# Variants of: B1
# Conditions: with if4e_human EIF4E
row,effect of a mutation on the interaction,Variant
1,with no effect,F133L

# Variants of: B1
# Conditions: with epha7_human EPHA7, Q15375
row,effect of a mutation on the interaction,Variant
1,with no effect,F133L

# Variants of: B1
# Conditions: with ephb1_human EPHB1, P54762
row,effect of a mutation on the interaction,Variant
1,with no effect,F133L

# Variants of: B1
# Conditions: with erbb3_human ERBB3, P21860
row,effect of a mutation on the interaction,Variant
1,with no effect,F133L

# Variants of: B1
# Conditions: with erbb4_human ERBB4, Q15303
row,effect of a mutation on the interaction,Variant
1,with no effect,F133L

# Variants of: B1
# Conditions: with esr1_human ESR1, P03372
row,effect of a mutation on the interaction,Variant
1,with no effect,F133L

# Variants of: B1
# Conditions: with etv1_human ETV1, P50549
row,effect of a mutation on the interaction,Variant
1,with no effect,F133L

# Variants of: B1
# Conditions: with ezh1_human EZH1, Q92800
row,effect of a mutation on the interaction,Variant
1,with no effect,F133L

# Variants of: B1
# Conditions: with ezh2_human EZH2, Q15910
row,effect of a mutation on the interaction,Variant
1,with no effect,F133L

# Variants of: B1
# Conditions: with facd2_human FANCD2, Q9BXW9
row,effect of a mutation on the interaction,Variant
1,with no effect,F133L

# Variants of: B1
# Conditions: with fgf19_human FGF19, O95750
row,effect of a mutation on the interaction,Variant
1,with no effect,F133L

# Variants of: B1
# Conditions: with fgfp1_human FGFBP1, Q14512
row,effect of a mutation on the interaction,Variant
1,with no effect,F133L

# Variants of: B1
# Conditions: with fgfr4_human FGFR4, P22455
row,effect of a mutation on the interaction,Variant
1,with no effect,F133L

# Variants of: B1
# Conditions: with fumh_human FH
row,effect of a mutation on the interaction,Variant
1,with no effect,F133L

# Variants of: B1
# Conditions: with fzr1_human FZR1, Q9UM11
row,effect of a mutation on the interaction,Variant
1,with no effect,F133L

# Variants of: B1
# Conditions: with gbra6_human GABRA6, Q16445
row,effect of a mutation on the interaction,Variant
1,with no effect,F133L

# Variants of: B1
# Conditions: with gata1_human GATA1, P15976
row,effect of a mutation on the interaction,Variant
1,with no effect,F133L

# Variants of: B1
# Conditions: with p66b_human GATAD2B
row,effect of a mutation on the interaction,Variant
1,with no effect,F133L

# Variants of: B1
# Conditions: with gna11_human GNA11, P29992
row,effect of a mutation on the interaction,Variant
1,with no effect,F133L

# Variants of: B1
# Conditions: with gna13_human GNA13, Q14344
row,effect of a mutation on the interaction,Variant
1,with no effect,F133L

# Variants of: B1
# Conditions: with gnaq_human GNAQ
row,effect of a mutation on the interaction,Variant
1,with no effect,F133L

# Variants of: B1
# Conditions: with grm1_human GRM1, Q13255
row,effect of a mutation on the interaction,Variant
1,with no effect,F133L

# Variants of: B1
# Conditions: with grm3_human GRM3, Q14832
row,effect of a mutation on the interaction,Variant
1,with no effect,F133L

# Variants of: B1
# Conditions: with gsk3b_human GSK3B
row,effect of a mutation on the interaction,Variant
1,with no effect,F133L

# Variants of: B1
# Conditions: with gtpb4_human GTPBP4, Q9BZE4
row,effect of a mutation on the interaction,Variant
1,with no effect,F133L

# Variants of: B1
# Conditions: with h33_human H3-3A
row,effect of a mutation on the interaction,Variant
1,with no effect,F133L

# Variants of: B1
# Conditions: with hdac1_human HDAC1, Q13547
row,effect of a mutation on the interaction,Variant
1,with no effect,F133L

# Variants of: B1
# Conditions: with hdac3_human HDAC3, O15379
row,effect of a mutation on the interaction,Variant
1,with no effect,F133L

# Variants of: B1
# Conditions: with hgf_human HGF
row,effect of a mutation on the interaction,Variant
1,with no effect,F133L

# Variants of: B1
# Conditions: with h31_human H3C1, P68431
row,effect of a mutation on the interaction,Variant
1,with no effect,F133L

# Variants of: B1
# Conditions: with hlab_human HLA-B
row,effect of a mutation on the interaction,Variant
1,with no effect,F133L

# Variants of: B1
# Conditions: with hnf1a_human HNF1A
row,effect of a mutation on the interaction,Variant
1,with no effect,F133L

# Variants of: B1
# Conditions: with igf1r_human IGF1R
row,effect of a mutation on the interaction,Variant
1,with no effect,F133L

# Variants of: B1
# Conditions: with il7ra_human IL7R
row,effect of a mutation on the interaction,Variant
1,with no effect,F133L

# Variants of: B1
# Conditions: with int12_human INTS12, Q96CB8
row,effect of a mutation on the interaction,Variant
1,with no effect,F133L

# Variants of: B1
# Conditions: with ist1_human IST1, P53990
row,effect of a mutation on the interaction,Variant
1,with no effect,F133L

# Variants of: B1
# Conditions: with jak3_human JAK3, P52333
row,effect of a mutation on the interaction,Variant
1,with no effect,F133L

# Variants of: B1
# Conditions: with kat2a_human KAT2A
row,effect of a mutation on the interaction,Variant
1,with no effect,F133L

# Variants of: B1
# Conditions: with kdm5a_human KDM5A
row,effect of a mutation on the interaction,Variant
1,with no effect,F133L

# Variants of: B1
# Conditions: with kdm5c_human KDM5C
row,effect of a mutation on the interaction,Variant
1,with no effect,F133L

# Variants of: B1
# Conditions: with kdm6a_human KDM6A
row,effect of a mutation on the interaction,Variant
1,with no effect,F133L

# Variants of: B1
# Conditions: with vgfr2_human KDR
row,effect of a mutation on the interaction,Variant
1,with no effect,F133L

# Variants of: B1
# Conditions: with lims1_human LIMS1, P48059
row,effect of a mutation on the interaction,Variant
1,with no effect,F133L
